The source of these data is publication doi:10.1101/2024.06.14.599074, “A higher order PUF complex is central to regulation of C. elegans germline stem cells” (bioRxiv, 2024).

For assay [1], the target named is T1, C. elegans FBF-2 RBD+CT (residues 164–632) (C. elegans, UniProt Q09312 164-632).
T1 sequence (looked up): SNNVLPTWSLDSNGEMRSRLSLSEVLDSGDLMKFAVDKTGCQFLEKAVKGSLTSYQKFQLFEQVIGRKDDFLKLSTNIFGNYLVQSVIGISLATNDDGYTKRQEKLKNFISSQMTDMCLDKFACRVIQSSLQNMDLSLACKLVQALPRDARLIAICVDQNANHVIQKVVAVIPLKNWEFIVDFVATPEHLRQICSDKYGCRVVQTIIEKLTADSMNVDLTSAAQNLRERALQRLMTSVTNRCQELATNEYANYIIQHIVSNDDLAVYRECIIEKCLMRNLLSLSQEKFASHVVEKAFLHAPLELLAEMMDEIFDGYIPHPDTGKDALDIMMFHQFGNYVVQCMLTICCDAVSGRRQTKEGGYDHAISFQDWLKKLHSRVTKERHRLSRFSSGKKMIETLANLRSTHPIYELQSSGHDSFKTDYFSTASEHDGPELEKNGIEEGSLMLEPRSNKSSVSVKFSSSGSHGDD
In words: cell-based or functional assay.

The target in assay [2] is T2, FBF-2 RBD protein (residue 164–575) (C. elegans, UniProt Q09312 164-575).
T2 construct: Tag cleaved with TEV protease (construct derived from an earlier pGEX6p FBF-2 RBD construct); source: E. coli, purified (as FBF-2 RBD+CT); for SEC-MALS and cryo-EM coexpressed with GST-fused LST-1^19-98 and purified as a complex
T2 sequence (looked up): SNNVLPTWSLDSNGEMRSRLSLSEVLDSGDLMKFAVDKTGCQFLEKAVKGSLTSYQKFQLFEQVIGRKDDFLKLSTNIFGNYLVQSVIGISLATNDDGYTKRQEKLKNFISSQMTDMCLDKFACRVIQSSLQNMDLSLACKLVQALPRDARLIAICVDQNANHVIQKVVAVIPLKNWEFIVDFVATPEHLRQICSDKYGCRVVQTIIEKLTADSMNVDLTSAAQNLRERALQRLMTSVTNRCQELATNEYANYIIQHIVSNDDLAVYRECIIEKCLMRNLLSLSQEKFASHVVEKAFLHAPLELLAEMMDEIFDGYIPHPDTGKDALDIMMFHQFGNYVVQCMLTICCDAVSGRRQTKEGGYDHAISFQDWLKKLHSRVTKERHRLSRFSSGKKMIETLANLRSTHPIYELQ
Kind of assay: ITC; LST-1 (100–400 μM) titrated from the syringe into the cell containing FBF-2 (10–30 μM); 20 °C; 20 mM HEPES pH 7.4, 150 mM NaCl, 0.5 mM TCEP; no RNA; one-site model; two technical replicates. The note with it: both partners purified. A general note: In ITC the heat of successive injections is recorded.

Assay [3] has as its target T1, C. elegans FBF-2 RBD+CT (residues …). The assay is described as above. The conditions noted are these: both partners purified.
Assay [4] addresses T2, FBF-2 RBD protein (residue 164–575). Kind of assay: SEC-MALS; purified FBF-2 RBD+CT or RBD/LST-1^19-98 protein (~30 μM) with 29-nt gld-1 FBEa-FBEa* RNA; Superdex-200 10/300 GL; 20 mM HEPES pH 7.4, 150 mM NaCl, 2 mM DTT. The note with it: both partners purified. (In general: In gel filtration, larger molecules generally elute earlier.)
Assay [5] has as its target T1, C. elegans FBF-2 RBD+CT (residues …). The assay is described as above. The note with it: both partners purified.
Assay [6] concerns the target T2, FBF-2 RBD protein (residue 164–575). Kind of assay: FRET or BRET; 2 μM unlabeled FBF-2 RBD pre-incubated with Cy5-labeled LST-1^19-98 (20, 40, 80 nM), then 20 nM 5′-Cy3-labeled gld-1 FBEa-FBEa* RNA; room temperature; FRET from Cy3 in the RNA to Cy5 in LST-1. The note with it: both partners purified.

Changes are numbered by the printed parent chain. Names and notes keep the numbering of the source. Values joined by “and” are separate entries in the source; they are usually repeats but may differ in a detail not shown here. Equal entries are not always repeated.

B1: LST-1^19-98 (LST-1 residues 19–98, spanning PIM-A and PIM-B) (domain or fragment, C. elegans, UniProt P91820 19-98, looked up)
chain: STIAYSKSQHEAPKQLLQLRSEIKPLIPLNQPSNFWESSQDSGVLSSLSSSPQQRSGLRSQKLHLTYIEKNKRVRAMIPQ
notes: LST-1, C. elegans, residues 19–98 of the N-terminal intrinsically disordered region, with PIM-A and PIM-B; Codon-optimized synthetic cDNA in the pSMT3 vector; tag removed with Ulp1; also called LST-1 peptide (residues 19–98); source: E. coli BL21-CodonPlus (DE3)-RIL, purified (Ni-NTA, heparin, Ni-NTA pass, Superdex 75)
Regarding B1, the “EMSA: RNA-binding affinity of FBF-2 RBD+CT for gld-1 FBEa-FBEa* RNA with 10 μM LST-1^19-98 against without LST-1” value in assay [1] is 4 fold. In assay [2], the Kd was 0.48 µM and 0.52 µM; the dH was -33.2 kcal/mol and -37.5 kcal/mol; the “stoichiometry N” value was 0.46 sites. Moreover, in assay [3], the Kd was 1.1 µM and 1.9 µM; the dH is -14.8 kcal/mol and -10.8 kcal/mol; the “stoichiometry N” value is 0.5 sites and 0.57 sites.

B2: LST-1^19-98 from the GST fusion coexpressed with FBF-2 (domain or fragment, C. elegans, UniProt P91820 19-98, looked up)
chain: B1 chain
notes: LST-1, C. elegans, residues 19–98; GST cleaved off with TEV protease; also called GST-LST-1^19-98
As to B2, the “stoichiometry N” value in assay [4] and in assay [5] was 2 FBF-2 per LST-1 in each case.

B3: C26-labeled LST-1^19-98 (S26C, Cy5) (domain or fragment, C. elegans, UniProt P91820 19-98, looked up)
chain: B1 chain with S8C
modifications: Cy5 on C26 via cysteine-maleimide conjugation
notes: LST-1, C. elegans, residues 19–98, cysteine in place of S26, five residues upstream of PIM-A; Probably made like wild-type LST-1^19-98 (His6-SUMO, cleaved); source: purified
As for B3, the binding result in assay [6] is “binds”.

B4: LST-1^19-98(A^m) (domain or fragment, C. elegans, UniProt P91820 19-98, looked up)
chain: B1 chain with K14A, L17A
notes: LST-1, C. elegans, residues 19–98, PIM-A mutated, PIM-B intact; also called LST-1 A^m; K32A/L35A double mutant in PIM-A; source: E. coli, purified (same protocol as for WT protein)
Regarding B4, in assay [2], the Kd is 0.13 µM and 0.12 µM; the dH is -15.3 kcal/mol and -16.5 kcal/mol; the “stoichiometry N” value was 1.15 sites and 1.05 sites. Moreover, in assay [3], the Kd was 3.7 µM and 2.8 µM; the dH was -11.4 kcal/mol and -11.5 kcal/mol; the “stoichiometry N” value was 1.02 sites and 0.98 sites.

B5: LST-1^19-98(B^m) (domain or fragment, C. elegans, UniProt P91820 19-98, looked up)
chain: B1 chain with K62A, L65A, Y67A
notes: LST-1, C. elegans, residues 19–98, PIM-B mutated, PIM-A intact; also called LST-1 B^m; K80A/L83A/Y85A triple mutant in PIM-B; source: E. coli, purified (same protocol as for WT protein)
Turning to B5, in assay [2], the Kd was 1.46 µM and 1.54 µM; the dH was -12.1 kcal/mol and -12.5 kcal/mol; the “stoichiometry N” value was 0.83 sites and 0.86 sites. In assay [3], the Kd is 24.1 µM and 46.2 µM; the dH was -11.1 kcal/mol and -11.5 kcal/mol; the “stoichiometry N” value was 1.06 sites and 0.89 sites.

B6: C74-labeled LST-1^19-98 (S74C, Cy5) (domain or fragment, C. elegans, UniProt P91820 19-98, looked up)
chain: B1 chain with S56C
modifications: Cy5 on C74 via cysteine-maleimide conjugation
notes: LST-1, C. elegans, residues 19–98, cysteine in place of S74, five residues upstream of PIM-B; Probably made like wild-type LST-1^19-98 (His6-SUMO, cleaved); source: purified
On to B6, for which the binding result in assay [6] is recorded as “binds”.

Usually Kd stands for the equilibrium constant for the complex coming apart. Higher therefore signals weaker binding. As usually defined, the stoichiometry N is a count of units in the complex or per binding partner.
